Source: paper PMC12297522

Experiments:
[1] = molecular target: trastuzumab (wild-type Fc) (human)
[2] = molecular target: trastuzumab-PFc29 (human)

“human FcRn-GST (from UniProt P55899 24-365) (receptor)” showed a serum half-life (t1/2) in hiFcRn mice, 5 mg/kg i.v. [1] of 8.3 days and a serum half-life in hiFcRn mice, 5 mg/kg i.v. [2] of 18.9 days.

“mouse FcRn-GST (from UniProt Q61559 22-365) (receptor)” gave a serum half-life (t1/2) in C57BL/6 mice, 5 mg/kg i.v. [1] of 13.1 days and a serum half-life in C57BL/6 mice, 5 mg/kg i.v. [2] of 10.5 days.
